# Data as given in the RNAGym collection of RNA variant scans (doi:10.7554/elife.90254).
# B1: OR4K15 (parent)
# chain: GUUAACGGUCAUAGGCCAUGGAAACUAGGAGCACCAUUUCGCUGCCAGUGAAGAAAUGAACAAAGAAAAUCUGGGCCAGGCAGGCAUCAAAAGAAAUAGUCUUGCGCUCAACCAGAAAGUCUGUAAUCAUUUUAAGGGUA
# Variants of: B1
# Test: self-cleavage, relative activity (ratio to wild type); higher = more cleavage; in vitro, sequencing; the parent is a self-cleaving ribozyme
row,Variant,self-cleavage
1,U49G A95G,1.28
2,G21A A24G,1.35
3,A30G G115U,0.21
4,A18G U102A,1.13
5,A118U U122C,0.89
6,A36G A126G,1.48
7,U26C U70C,0.38
8,A95G U120C,1.82
9,U72C U139C,0.46
10,U87C U139C,0.35
11,A116G A118C,0.15
12,G83C,0.35
13,A78U A91G,0.11
14,A60G A114U,0.06
15,A94G A140U,0.72
16,U43C A94U,1.77
17,U37A A98G,1.07
18,A51C A68G,1.2
19,A5U U87A,1.2
20,A118G C121A,2.97
21,A18U A92G,1.04
22,C46U A118U,0.76
23,A27U U70A,1.68
24,A54U A94G,1.64

row,Variant,self-cleavage
1,U70C A86G,0.86
2,A22G A51U,1.24
3,A54G G75A,0.14
4,U12A C109U,0.24
5,U19C A52G,1.35
6,U37C A60U,1.69
7,A114U G137U,0.3
8,A89G A118U,0.54
9,C10U C77U,0.98
10,A33G U108C,0.02
11,A22U A134G,1.35
12,A67G C128U,0.62
13,A11U A78U,0.49
14,A52U A66G,1.8
15,A51G A78U,0.35
16,A56G U72C,0.28
17,A27G U97A,1.24
18,A64G U97C,1.63
19,A62U U132C,1.48
20,A94U A98G,1.06
21,U120C U139A,0.85
22,A5G A114U,0.04
23,A60G U127A,1.87
24,A54G C112U,0.03

row,Variant,self-cleavage
1,C81U A129U,0.16
2,A5G A18G,0.8
3,A55G G65A,1.07
4,U130C,0.76
5,A96G A98U,2.3
6,A96G A98G,0.91
7,A18G G138A,1.27
8,A47G U100C,1.85
9,A96G A116U,0.24
10,A56U A96G,1.62
11,A23G A56G,1.18
12,U2C A78C,0.4
13,U100A U124C,0.18
14,C6A U38A,0.42
15,A66G A67C,1.66
16,A60U A117G,1.84
17,A30G C32U,0.93
18,A18U A59U,0.69
19,C10A,1.11
20,U70C U132C,0.96
21,A24G U26C,0.81
22,A18U U132C,1.75
23,G48C U131C,0.69
24,A24G G75A,0.15

row,Variant,self-cleavage
1,A91G U122C,0.42
2,A62G U139A,1.84
3,G7A A90U,2.31
4,A64U C77U,1.56
5,U37C A98U,1.84
6,A47U U102C,1.92
7,U38C U57A,1.48
8,A95G U127G,2.23
9,A13G U130C,0.83
10,A95G A135C,2.68
11,A27G A82G,0.33
12,A13G U70G,1.1
13,A64G,1.2
14,A63U A95G,1.78
15,G7U G21A,0.87
16,A56U A91G,2.02
17,U38C G41U,1.46
18,U49A U124A,0.56
19,U9C A11G,0.85
20,G1A A90G,0.26
21,A59G A86G,0.5
22,A51G U72A,0.13
23,U87C U108C,0.01
24,U49C A117G,1.68

row,Variant,self-cleavage
1,A51U A111U,0.06
2,G8A A68G,2.15
3,A22G C46G,1.35
4,A27U A64G,1.58
5,C35U A135G,1.57
6,A60G A125G,0.69
7,C121U U131C,2.02
8,A11G A55G,0.92
9,C25U A89C,1.42
10,U72A A114U,1.94
11,A90G C112G,0
12,A55G C101U,0.38
13,U124C A129U,0.94
14,G7A A55G,1.39
15,G50U A62C,2.27
16,A5U A22G,0.69
17,U72A U120A,0.17
18,U100A U139C,0.83
19,C76A A94G,0.06
20,U12C A24G,1.09
21,U100C C105U,0.33
22,C42U A91G,1.09
23,U9C A67C,1.31
24,U26A U122A,0.73

row,Variant,self-cleavage
1,A5G A24C,0.68
2,A22G U43A,1.31
3,A92G U132G,1.04
4,G58U A98G,0.34
5,A54G G93A,1.21
6,A52U U57C,1.45
7,A22G A27U,1.2
8,U87C A89U,0.65
9,U2A C45A,1.82
10,C16G A47U,0.8
11,A59G A126U,1.27
12,U39A A140G,1.16
13,U19G A51G,0.33
14,U2C G53U,1.64
15,A117U U124A,0.27
16,A18G U37C,1.04
17,A33G A86G,0.7
18,A5G U130C,1.01
19,G84A,2.05
20,A23G A55U,0.86
21,C46U G74A,0.32
22,A54U A64U,1.98
23,A33G A111U,0.06
24,A56G U122A,0.63

row,Variant,self-cleavage
1,U100A,0.61
2,A82U A126U,0.19
3,A30U A66U,0.65
4,U122C A134G,1.75
5,U3C A129G,1.14
6,U39C A110G,0.14
7,U70C C88U,1.54
8,U19C C105U,0.15
9,U49C U102C,2
10,U19A A64G,1.03
11,U49A A59G,1.44
12,A92G C101U,0.12
13,A67G,1.1
14,G53A A78G,0.22
15,A69G U127C,0.82
16,G20A U97A,2.67
17,A60G C105U,0.28
18,G20A U72A,0.06
19,A66G G75A,0.08
20,U2C A98G,0.57
21,A56U U87C,1.05
22,U130C U133A,2.08
23,A54G A110U,1.71
24,G75A C109U,0.09

row,Variant,self-cleavage
1,U37C G115U,0.37
2,A86G U130A,1.55
3,A86U G93U,2.01
4,A78U A114U,0.03
5,U49C U139C,1.71
6,A116G A126G,0.12
7,A24G G28A,1.11
8,A51C U108C,0.01
9,A67U A118G,1.4
10,G41A U103C,1.76
11,A24G A95U,1.16
12,U9C A62G,1.49
13,A78U G115U,0.03
14,U108C A126U,0.01
15,U43A G53A,1.84
16,U19A U97G,1.84
17,A68G A110G,0.25
18,A68G U102C,1.9
19,A13U A22U,1.45
20,A68G A89G,2.04
21,A27G A30U,1.61
22,A110G U127A,0.15
23,A24G U130G,0.56
24,A78G G106C,0.02

row,Variant,self-cleavage
1,U39C A126U,1.06
2,A18G G50A,0.74
3,U38A G104A,0
4,G7C A91G,0.76
5,A94U U122C,2.05
6,U2C A13G,0.99
7,A4G A110U,1.15
8,A63U A118G,1.71
9,U19A A92U,2.13
10,C34U U70C,0.23
11,A13G A22G,1.11
12,A54G A126G,0.64
13,G73C,0.23
14,A13G U120C,0.6
15,G15C U108C,0.03
16,A82G U102C,1.16
17,A64G U102C,2.06
18,A62G A134G,1.72
19,A51C A117G,0.81
20,C85G U130C,0.34
21,A5U A63G,1.2
22,U37C A90U,0.91
23,A86U A91G,1.93
24,A86C A94G,0.32

row,Variant,self-cleavage
1,A92G U102G,0.61
2,A86U A114G,1.22
3,A33C A96G,2.84
4,A56G A116U,0.56
5,A90G G119A,0.36
6,U57A A110U,1
7,U9A U38C,1.05
8,U26G A89C,1.29
9,A23G A62C,0.98
10,U49C G99U,0.28
11,A4G G20A,0.82
12,U87C A125G,0.41
13,U87C U132A,0.81
14,A90G A118G,0.47
15,A82U A111G,0.02
16,A18U A110C,0.23
17,A94G U130C,1.16
18,A125G G138A,0.47
19,U102C U120C,2.34
20,A68U U87C,1.78
21,U43C A64U,1.82
22,A36U U127A,2.98
23,U2C C10U,1.04
24,A18U A135G,1.36

row,Variant,self-cleavage
1,A33G A114G,0.11
2,A36U A63G,1.98
3,A90G A98G,0.22
4,U12C U43C,1.34
5,U43A U122C,1.85
6,U124A U131C,0.36
7,A18U A140U,1.33
8,G119A U139C,2.96
9,A18G A114G,0.77
10,A78G U97C,0.38
11,A62G U120A,1.1
12,A56G U97C,0.4
13,A118U U131C,0.37
14,A27G A62G,1.46
15,A94G U100C,2.37
16,G73A A129G,0.07
17,A91G C109U,0.4
18,A111G U132C,0.03
19,U124A U130C,0.1
20,U9A A116U,0.18
21,U12A U102C,1.73
22,U70C A89G,0.58
23,A62G U72A,0.18
24,U87A A96U,1.68

row,Variant,self-cleavage
1,A36G A91U,1.95
2,U19C U127A,2.17
3,A27G A125U,1.41
4,A69G A125G,0.39
5,A30G A56C,0.43
6,U57G A129G,1.15
7,U9C A56G,1.24
8,A13G A66G,0.55
9,G41U A86U,1.98
10,A11U A13U,1.5
11,A59G U130C,1.52
12,U9C U72C,0.2
13,A22G A66C,1.49
14,C17U A95G,2.06
15,A36U U37C,0.59
16,A91G A140G,1.21
17,A125G U133C,1.09
18,A33G A68U,1.02
19,A135G A140G,0.95
20,A11G G74C,0.38
21,U49A U127C,0.38
22,U39A G115C,0.52
23,A36G U70C,0.6
24,A51U A78G,0.26

row,Variant,self-cleavage
1,A52U A90G,0.38
2,A18G A66G,1.81
3,C113U A140G,0.12
4,U9C U57G,1.07
5,A5G A11G,0.63
6,A92C C101A,0.13
7,A52G U124C,1.18
8,U26C A51G,1.72
9,G65A A66G,1.13
10,A30G G53C,1.95
11,U70C C113G,0.02
12,U12C A18G,0.87
13,A91G U133C,1.1
14,C40G,1.62
15,A66G U72A,0.32
16,C17U U131C,0.73
17,U2A G14C,0.7
18,A90G U132A,0.56
19,U9C A69G,1.38
20,A36G U37C,1.71
21,C6U U43A,0.96
22,A4G C105U,0.14
23,A92C A129G,1.66
24,A94U C107U,0.01

row,Variant,self-cleavage
1,A36G U87C,2.04
2,G7U A23G,1.04
3,G58A U139C,0.57
4,A92U G123U,2.07
5,C35U C88A,1.16
6,C46U A82G,0.94
7,A47G U87A,1.63
8,A33C A68U,2.07
9,A47C A51G,1.5
10,A18U G41A,1.09
11,A47G A62U,1.22
12,U49A A54G,1.3
13,A55G G58A,1.63
14,A22U G44A,1.87
15,G1A G138A,2.03
16,U2G U9C,1.05
17,A89C A90G,0.73
18,G65U U87C,2.23
19,U26G,1.33
20,U19C A78U,0.28
21,G28A A52U,1.15
22,G14A U124C,0.47
